Data published in patent US20190276796A1.

Experiments:
murine FcγRIV (murine) [1] = assay: competition flow cytometry on CHO DG-44 cells expressing murine FcγRIV; competitor Alexa Fluor 488 labeled anti-CD70 IgG1
[2] = target: human FcγRIIIA V158 (human) (UniProt P08637); assay: competition flow cytometry on CHO DG-44 cells expressing human FcγRIIIA V158; competitor Alexa Fluor 488 labeled anti-CD70 IgG1
murine FcγRIV (murine) [3] = assay: competition flow cytometry on CHO DG-44 cells expressing murine FcγRIV; competitor 200 nmol/L Alexa Fluor 488 labeled anti-CD70 IgG1
[4] = target: human FcγRIIIA V158 (human) (UniProt P08637); assay: competition flow cytometry on CHO DG-44 cells expressing human FcγRIIIA V158; competitor 50 nmol/L Alexa Fluor 488 labeled anti-CD70 IgG1

murine FcγRIV (murine), sequence (A0A0B4 entry or part of it limits assumed): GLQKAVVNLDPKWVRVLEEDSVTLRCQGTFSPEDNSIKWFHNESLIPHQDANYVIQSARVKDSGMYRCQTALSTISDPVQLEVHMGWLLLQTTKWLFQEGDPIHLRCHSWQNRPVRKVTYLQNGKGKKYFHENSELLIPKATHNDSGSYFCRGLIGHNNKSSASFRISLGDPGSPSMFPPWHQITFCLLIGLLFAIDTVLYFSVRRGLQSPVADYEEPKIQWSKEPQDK
human FcγRIIIA V158 (human), sequence (P08637 17-254 F176V): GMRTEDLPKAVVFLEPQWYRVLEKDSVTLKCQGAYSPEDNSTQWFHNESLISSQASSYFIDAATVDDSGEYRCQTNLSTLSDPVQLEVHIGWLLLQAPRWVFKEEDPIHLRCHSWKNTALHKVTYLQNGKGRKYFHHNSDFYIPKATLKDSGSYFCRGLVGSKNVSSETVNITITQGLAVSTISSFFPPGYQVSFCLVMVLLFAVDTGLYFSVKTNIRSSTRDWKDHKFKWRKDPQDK

fold difference in EC50 against the parent (control) anti-CD70 antibody (murine FcγRIV (murine) [1]): 18 fold
fold difference in EC50 against the parent antibody [2]: 14 fold
EC50 (murine FcγRIV (murine) [3]): 20.8 nM
EC50 [4]: 7.99 nM
Substance: h1F6 antibody from host cells cultured in the presence of 50 µM alkynyl fucose peracetate (non-core fucosylated anti-CD70 antibody)
